Test results from patent US20070086956A1 (Bayer, published 2007).
Like-named read-outs stand apart in the source and are kept apart here. Where no end group is shown, it is not given here.

Legend:
[1] = biological target: T1, bovine trypsin (type III) (bovine, UniProt P00760 24-246); test: enzyme inhibition, trypsin 48.5 pM
[2] = biological target: T2, human plasmin (human, UniProt P00747 97-810, limits assumed); test: enzyme inhibition, human plasmin 50 pM
[3] = biological target: T3, human factor Xa (human, UniProt P00742 41-179; P00742 235-488, limits assumed); test: enzyme inhibition, factor Xa 0.87 nM
T3 sequence (P00742 41-179 limits assumed, chain 1 of 2): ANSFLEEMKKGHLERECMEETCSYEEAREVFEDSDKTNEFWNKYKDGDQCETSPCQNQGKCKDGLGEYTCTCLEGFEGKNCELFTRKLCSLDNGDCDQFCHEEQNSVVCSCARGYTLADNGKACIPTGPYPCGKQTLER
T3 sequence (P00742 235-488 limits assumed, chain 2 of 2): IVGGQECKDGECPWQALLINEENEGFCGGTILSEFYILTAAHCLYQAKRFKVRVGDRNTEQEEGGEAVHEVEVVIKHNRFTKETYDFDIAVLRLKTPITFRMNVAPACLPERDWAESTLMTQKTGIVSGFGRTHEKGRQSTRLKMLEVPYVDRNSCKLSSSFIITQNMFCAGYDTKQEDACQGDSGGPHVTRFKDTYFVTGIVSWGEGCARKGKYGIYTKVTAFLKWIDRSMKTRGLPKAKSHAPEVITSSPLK

[4] = biological target: tissue plasminogen activator (tPA), single chain form from human melanoma cell culture (human, UniProt P00750 36-562, limits assumed); test: enzyme inhibition, tPA 7.5 nM, chromogenic substrate, A405
Sequence of tissue plasminogen activator (tPA), single chain form from human melanoma cell culture (P00750 36-562 limits assumed): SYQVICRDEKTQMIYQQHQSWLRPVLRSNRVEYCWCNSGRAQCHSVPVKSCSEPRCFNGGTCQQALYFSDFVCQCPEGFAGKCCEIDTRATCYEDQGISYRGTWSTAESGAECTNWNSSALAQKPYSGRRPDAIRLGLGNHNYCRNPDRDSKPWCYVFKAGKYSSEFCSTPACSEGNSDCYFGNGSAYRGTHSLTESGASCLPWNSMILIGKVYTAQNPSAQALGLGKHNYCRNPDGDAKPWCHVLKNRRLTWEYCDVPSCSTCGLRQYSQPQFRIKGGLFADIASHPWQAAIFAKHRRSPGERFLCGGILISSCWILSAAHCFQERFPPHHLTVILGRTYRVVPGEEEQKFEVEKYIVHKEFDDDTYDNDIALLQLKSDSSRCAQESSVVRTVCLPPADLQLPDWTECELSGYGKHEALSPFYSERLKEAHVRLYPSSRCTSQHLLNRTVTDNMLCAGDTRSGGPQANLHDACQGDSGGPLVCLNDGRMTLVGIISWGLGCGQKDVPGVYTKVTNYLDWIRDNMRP
Protocol: Inhibition of tissue plasminogen activator (tPA) was also determined as follows: tPA (single chain form from human melanoma cell culture from Sigma Chemical Co, St Louis, Mo.) was pre-incubated with inhibitor for 2 hr at room temperature in 20 mM Tris buffer pH 7.2 containing 150 mM NaCl, and 0.02% sodium azide. […] Formation of p-Nitroaniline was determined from the A405 nm measured following incubation at 37 C for 2 hr.

[5] = biological target: T4, human tissue kallikrein (human, UniProt P06870 25-262); test: enzyme inhibition, human tissue kallikrein 0.35 nM, substrate PFR-AMC
T4 sequence (P06870 25-262 limits assumed): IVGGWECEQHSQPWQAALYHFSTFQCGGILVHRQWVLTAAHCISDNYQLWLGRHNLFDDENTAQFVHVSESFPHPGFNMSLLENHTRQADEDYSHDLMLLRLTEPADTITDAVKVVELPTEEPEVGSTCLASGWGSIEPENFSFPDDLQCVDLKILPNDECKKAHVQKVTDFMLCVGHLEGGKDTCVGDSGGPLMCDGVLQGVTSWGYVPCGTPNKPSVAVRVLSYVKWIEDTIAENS

[6] = biological target: T5, Tissue Factor VIIa; test: enzyme inhibition, method not described
T5 construct: also called TF/FVIIa

[7] = biological target: T6, Factor XIa (human, UniProt P03951 19-625); test: enzyme inhibition, factor XIa 0.1 nM
T6 construct: also called FXIa; Human FXIa

[8] = biological target: T7, human plasma kallikrein (human, UniProt P03952 20-638); test: enzyme inhibition, human plasma kallikrein 2.5 nM
T7 sequence (P03952 20-638 limits assumed): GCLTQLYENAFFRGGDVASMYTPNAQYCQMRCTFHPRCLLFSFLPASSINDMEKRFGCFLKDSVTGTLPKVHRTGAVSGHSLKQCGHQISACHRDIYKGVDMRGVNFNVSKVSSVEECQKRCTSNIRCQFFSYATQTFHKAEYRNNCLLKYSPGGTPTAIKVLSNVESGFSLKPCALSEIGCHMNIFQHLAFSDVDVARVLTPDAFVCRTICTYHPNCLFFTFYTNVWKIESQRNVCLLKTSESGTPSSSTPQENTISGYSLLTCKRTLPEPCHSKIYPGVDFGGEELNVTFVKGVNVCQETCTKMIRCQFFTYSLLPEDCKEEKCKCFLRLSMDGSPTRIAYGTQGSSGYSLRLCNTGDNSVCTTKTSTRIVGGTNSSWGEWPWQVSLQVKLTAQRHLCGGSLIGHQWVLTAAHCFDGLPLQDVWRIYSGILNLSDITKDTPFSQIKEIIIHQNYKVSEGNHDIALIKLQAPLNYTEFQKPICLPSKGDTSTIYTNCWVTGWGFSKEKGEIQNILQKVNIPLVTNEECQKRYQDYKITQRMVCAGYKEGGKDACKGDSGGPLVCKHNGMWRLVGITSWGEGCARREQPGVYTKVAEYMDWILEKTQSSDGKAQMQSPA

[9] = biological target: T2, human plasmin; test: enzyme inhibition, human plasmin 50 pM; remark: listed apart in the source
[10] = biological target: T8, bovine pancreatic kallikrein (bovine); test: enzyme inhibition, bovine pancreatic kallikrein 100 pM
T8 construct: also called kallikrein-sepharose

[11] = biological target: T1, bovine trypsin (type III); test: enzyme inhibition, trypsin 48.5 pM; remark: listed apart in the source
[12] = biological target: T4, human tissue kallikrein; test: enzyme inhibition, human tissue kallikrein 0.35 nM, substrate PFR-AMC; remark: listed apart in the source
[13] = biological target: T6, Factor XIa; test: enzyme inhibition, FXIa 0.1 nM, substrate Boc-Glu(OBzl)-Ala-Arg-AMC
[14] = biological target: T7, human plasma kallikrein; test: enzyme inhibition, human plasma kallikrein […] nM, substrate PFR-AMC
[15] = biological target: T2, human plasmin; test: enzyme inhibition, human plasmin 50 pM, substrate GPK-AMC
[16] = biological target: T8, bovine pancreatic kallikrein; test: enzyme inhibition, bovine pancreatic kallikrein 92.0 pM
[17] = biological target: T9, Bovine chymotrypsin (bovine, UniProt P00766 1-13; P00766 16-146; P00766 149-245); test: enzyme inhibition, bovine chymotrypsin 5 nM
[18] = biological target: T2, human plasmin; test: enzyme inhibition, human plasmin 50 pM; remark: listed apart in the source
[19] = biological target: human urokinase (human, UniProt P00749 21-431, limits assumed); test: enzyme inhibition, urokinase, substrate GGR-AMC
[20] = biological target: T10, human neutrophil elastase (human, UniProt P08246 30-247, limits assumed); test: enzyme inhibition, elastase
T10 sequence (looked up): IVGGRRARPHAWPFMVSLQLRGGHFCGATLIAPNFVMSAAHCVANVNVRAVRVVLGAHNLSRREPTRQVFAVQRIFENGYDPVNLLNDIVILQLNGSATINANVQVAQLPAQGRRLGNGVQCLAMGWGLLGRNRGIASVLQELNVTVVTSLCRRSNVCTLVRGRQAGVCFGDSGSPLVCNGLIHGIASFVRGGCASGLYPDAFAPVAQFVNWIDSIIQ
Protocol: (§1) Ki values were determined from Dixon plots of the form 1/V versus performed at two different substrate concentrations (Dixon et al., 1979).

[21] = biological target: T4, human tissue kallikrein; test: enzyme inhibition, human tissue kallikrein 0.35 nM, substrate PFR-AMC; remark: listed apart in the source
[22] = biological target: T4, human tissue kallikrein; test: enzyme inhibition, human tissue kallikrein
[23] = biological target: T6, Factor XIa; test: enzyme inhibition, factor XIa 0.1 nM, substrate Boc-Glu(OBzl)-Ala-Arg-AMC
[24] = biological target: T10, human neutrophil elastase; test: enzyme inhibition (Dixon plot), human neutrophil elastase 19 nM, substrate AAPM-AMC
Protocol: as §1

[25] = biological target: T2, human plasmin; test: enzyme inhibition, human plasmin 50 pM; remark: listed apart in the source
[26] = biological target: T2, human plasmin; test: enzyme inhibition, human plasmin 50 pM, substrate GPK-AMC; remark: listed apart in the source
[27] = biological target: T6, Factor XIa; test: enzyme inhibition, Factor XIa 0.1 nM
[28] = biological target: T7, human plasma kallikrein; test: enzyme inhibition, human plasma kallikrein […] nM
[29] = biological target: T3, human factor Xa; test: enzyme inhibition, factor Xa 0.87 nM, substrate LGR-AMC
[30] = biological target: T9, Bovine chymotrypsin; test: enzyme inhibition, chymotrypsin 5 nM, substrate AAPF-pNA
[31] = biological target: T7, human plasma kallikrein; test: enzyme inhibition, plasma kallikrein (apparent Ki)

T2 sequence (P00747 97-810 limits assumed): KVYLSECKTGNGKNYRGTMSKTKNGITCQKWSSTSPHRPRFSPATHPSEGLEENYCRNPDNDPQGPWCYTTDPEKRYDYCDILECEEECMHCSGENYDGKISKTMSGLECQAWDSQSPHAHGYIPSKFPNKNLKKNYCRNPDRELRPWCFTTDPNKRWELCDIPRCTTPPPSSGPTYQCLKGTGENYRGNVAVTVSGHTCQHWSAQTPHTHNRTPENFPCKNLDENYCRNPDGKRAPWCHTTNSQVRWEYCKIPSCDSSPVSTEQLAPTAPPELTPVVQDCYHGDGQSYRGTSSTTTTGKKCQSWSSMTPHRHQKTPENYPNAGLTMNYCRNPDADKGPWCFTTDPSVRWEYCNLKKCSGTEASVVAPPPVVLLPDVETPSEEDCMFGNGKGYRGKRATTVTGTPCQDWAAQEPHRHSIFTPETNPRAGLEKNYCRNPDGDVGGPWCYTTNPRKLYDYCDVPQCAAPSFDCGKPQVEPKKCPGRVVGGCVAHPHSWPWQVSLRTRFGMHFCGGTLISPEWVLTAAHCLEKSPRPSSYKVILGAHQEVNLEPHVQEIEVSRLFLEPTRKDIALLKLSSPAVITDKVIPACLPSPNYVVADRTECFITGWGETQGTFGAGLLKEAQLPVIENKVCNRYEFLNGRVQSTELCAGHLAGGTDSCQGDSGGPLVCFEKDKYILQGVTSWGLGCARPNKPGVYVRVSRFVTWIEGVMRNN
T1 sequence (P00760 24-246): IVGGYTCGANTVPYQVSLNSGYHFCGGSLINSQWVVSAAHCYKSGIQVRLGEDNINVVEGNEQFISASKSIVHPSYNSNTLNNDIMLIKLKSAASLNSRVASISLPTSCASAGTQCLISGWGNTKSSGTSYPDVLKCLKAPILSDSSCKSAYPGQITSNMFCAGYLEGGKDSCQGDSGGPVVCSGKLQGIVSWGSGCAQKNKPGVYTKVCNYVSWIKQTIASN

B1: native human placental bikunin isolated from placenta (other)
chain: ADRERSIHDFCLVSKVVGRCRASMPRWWYNVTDGSCQLFVYGGCDGNSNNYLTKEECLKKCATVTENATGDLATSRNAADSSVPSAPRRQDSEDHSSDMFNYEEYCTANAVTGPCRASFPRWYFDVERNSCNNFIYGGCRGNKNSYRSEEACMLRCFRQQENPPLPLGSK
modifications: Asn 30 silent in sequencing, likely glycosylated
notes: Soluble protein purified from human placenta; A minor species started at residue 6; also called native Placental Bikunin (1-179)
B1 gave a Ki [1] of 0.13 nM and a Ki [2] of 1.9 nM.

B2: placental bikunin (1-170) derived from a baculovirus/Sf9 expression system (other)
chain: ADRERSIHDFCLVSKVVGRCRASMPRWWYNVTDGSCQLFVYGGCDGNSNNYLTKEECLKKCATVTENATGDLATSRNAADSSVPSAPRRQDSEDHSSDMFNYEEYCTANAVTGPCRASFPRWYFDVERNSCNNFIYGGCRGNKNSYRSEEACMLRCFRQQENPPLPLGSK
notes: Both Kunitz domains, truncated before the transmembrane segment; N-terminus ADRER confirmed, so the signal peptide was removed; also called Recombinant Bikunin; recombinant placental bikunin (1-170)
B2 gave a Ki [3] of 180 nM, a Ki [4] of under 60 nM and a Ki [5] of 0.04 nM. For the same binder, the Ki [6] was 800 nM, the Ki [7] was 3 nM and the Ki [8] was 0.18 nM. It also gave a Ki [9] of 0.23 nM, a Ki [10] of 0.12 nM and a Ki [11] of 0.064 nM.

B3: CHO expressed placental bikunin (1-170) (other)
chain: ADRERSIHDFCLVSKVVGRCRASMPRWWYNVTDGSCQLFVYGGCDGNSNNYLTKEECLKKCATVTENATGDLATSRNAADSSVPSAPRRQDSEDHSSDMFNYEEYCTANAVTGPCRASFPRWYFDVERNSCNNFIYGGCRGNKNSYRSEEACMLRCFRQQENPPLPLGSK
modifications: N-linked carbohydrate at Asn-30 and Asn-61 (so in the source)
notes: Glycosylated isoforms of 21-38 kDa; also called CHO Bikunin (1-170)
Binder B3 has a Ki [12] of 0.3 nM, a Ki [13] of 1.9 nM and a Ki [14] of 0.5 nM. The Ki [15] was 0.2 nM.

B4: synthetic placental bikunin (7-64), first preparation of Example 2 (other)
chain: IHDFCLVSKVVGRCRASMPRWWYNVTDGSCQLFVYGGCDGNSNNYLTKEECLKKCATV
notes: also called placental bikunin fragment (7-64); KID1
With B4 the Ki [16] was 0.4 nM and the Ki [17] was 0.6 nM.

B5: synthetic placental bikunin (102-159) (other)
chain: YEEYCTANAVTGPCRASFPRWYFDVERNSCNNFIYGGCRGNKNSYRSEEACMLRCFRQ
modifications: disulfide (positions not given here)
notes: also called KID2
B5 gave a Ki [18] of 1.8 nM, a Ki [17] of 0.2 nM and a Ki [19] of 11000 nM. For the same binder, the Ki [20] was 323 nM, the Ki [21] was 0.13 nM and the Ki [22] was 0.13 nM. The Ki [23] was 15 nM, the Ki [24] was 323 nM and the Ki [25] was 1.8 nM. The Ki [26] was 1.8 nM, the Ki [27] was 15 nM and the Ki [28] was 0.7 nM. It also gave a Ki [29] of 274 nM and a Ki [30] of 0.24 nM.

B6: placental bikunin (102-159) expressed in yeast strain SC101 (recombinant 2.4) and purified (other)
chain: YEEYCTANAVTGPCRASFPRWYFDVERNSCNNFIYGGCRGNKNSYRSEEACMLRCFRQ
notes: also called placental bikunin C-terminal domain
B6 showed a Ki [31] of 0.35 nM.
